Measurements taken from article PMC3887093.

Molecular target: Plasmodium vivax Duffy binding protein region II (DBP-RII), recombinant (Plasmodium vivax) (UniProt P22290)
Assay: ITC; DARC1-60 at 1.3 mM titrated into 1.4 mL of 130 µM DBP-RII; PBS; 10°C; independent two-site binding model after subtraction of both controls; molar ratios in monomers of DBP-RII

Chain of UniProt P22290 (P22290 211-525): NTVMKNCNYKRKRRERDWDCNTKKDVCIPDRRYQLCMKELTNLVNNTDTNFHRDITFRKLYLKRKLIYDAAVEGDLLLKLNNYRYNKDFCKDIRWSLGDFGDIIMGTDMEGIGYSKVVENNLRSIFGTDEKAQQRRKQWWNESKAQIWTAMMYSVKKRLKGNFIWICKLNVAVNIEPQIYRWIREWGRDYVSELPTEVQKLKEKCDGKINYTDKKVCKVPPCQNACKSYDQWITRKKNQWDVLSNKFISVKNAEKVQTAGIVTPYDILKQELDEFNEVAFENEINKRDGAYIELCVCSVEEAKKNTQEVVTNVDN

DARC N-terminal ectodomain, residues 1-60, unsulfated, three cysteines mutated to alanine (from UniProt Q16570 1-60) (domain or fragment)
Kd1 (first binding event, heterotrimer; two independent sites fit): 2180 nM | Kd2 (second binding event, heterotetramer; two independent sites fit): 88.5 nM | Kd of the first binding event (two independent sites fit): 2180 nM | dH1 (first binding event): -2.66 kcal/mol | dH2 (second binding event): -3.34 kcal/mol | n1 (first binding event, per monomer of DBP-RII): 0.44 | n2 (second binding event, per monomer of DBP-RII): 0.5 | stoichiometry N: 1
